Measured values taken from patent US10919966B2, “Antibody to programmed death-ligand 1 (PD-L1) and use thereof” (Y-BIOLOGICS INC., dated 2021).

B1: PDL1-16E12 (antibody, V domains shown)
VH: QMQLVQSGAEVKKPGSSVKVSCKASGGTFSSYAISWVRQAPGQGLEWMGRIIPILGIANYAQKFQGRVTITADKSTSTAYMELSSLRSEDTAVYYCAKPRDGYNLVAFDIWGQGTMVTVSS
VL: QLVLTQPPSVSGAPGQTVTISCTGSSSNIGAGYDVHWYQQLPGTAPKLLIYGNNNRPSGVPDRFSGSKSGALASLAITGLQAEDGADYHCQSYDNSLSAHAVFGTGTKVTVL
B2: PDL1-16E12 (LS/4F5) (antibody, V domains shown)
VH: QMQLVQSGAEVKKPGSSVKVSCKASGGTFSSYAISWVRQAPGQGLEWMGRIIPILGIANYAQKFQGRVTITADKSTSTAYMELSSLRSEDTAVYYCAKPRDGYNLVAFDIWGQGTMVTVSS
VL: QLVLTQPPSVSGAPGQRVTISCTGSSSNIGAGYDVHWYQQLPGAAPKLLIYGDINRPSGVPDRFSGSKSGISASLAITGLQAEDEADYYCQSYDSSLSGGVFGGGTKLTVL

Experiments:
[1] = biological target: T1, PD-L1-hFc (human, UniProt Q9NZQ7); test: SPR, ProteOn XPR36, PD-L1-hFc immobilised on GLC chip, antibody 30 nM to 0.123 nM
Description: (§1) A ProteOn XPR36 (BioRad) instrument was used. The GLC sensor chip (BioRad) was mounted on the instrument and washed with PBST buffer, and the carboxymethyldextran surface was activated with an EDC/sulfo-NHS mixed solution. PD-L1-hFc dissolved at a concentration of 5 ug/ml in a 10 mM sodium acetate buffer solution (pH 5.0) was injected and immobilized on the GLC sensor chip.
In order to deactivate the activated carboxyl groups that remain unreacted with the PD-L1 protein, 1 M ethanolamine was flowed and 10 mM glycine (pH 2.0) was injected in order to wash proteins that remain unbound to the sensor chip.

[2] = biological target: T1, PD-L1-hFc; test: SPR, ProteOn XPR36, human PD-L1 (PD-L1-hFc immobilised)
Description: as §1
In order to deactivate the activated carboxyl groups that remain unreacted with the PD-L1 protein, 1 M ethanolamine was flowed and 10 mM glycine (pH 2.0) was injected in order to wash proteins that remain unbound to the sensor chip. Then, sensogram data were collected during binding and dissociation over time while allowing the antibodies to flow at a flow rate of 30 µL/min (30 nM to 0.123 nM) for 10 min using PBST buffer.

[3] = biological target: cynomolgus PD-L1 protein (cynomolgus, UniProt G7PSE7); test: SPR, ProteOn XPR36, cynomolgus PD-L1 protein (construct not described)

T1 sequence (Q9NZQ7 other isoform, or with tags, fused parts or gaps): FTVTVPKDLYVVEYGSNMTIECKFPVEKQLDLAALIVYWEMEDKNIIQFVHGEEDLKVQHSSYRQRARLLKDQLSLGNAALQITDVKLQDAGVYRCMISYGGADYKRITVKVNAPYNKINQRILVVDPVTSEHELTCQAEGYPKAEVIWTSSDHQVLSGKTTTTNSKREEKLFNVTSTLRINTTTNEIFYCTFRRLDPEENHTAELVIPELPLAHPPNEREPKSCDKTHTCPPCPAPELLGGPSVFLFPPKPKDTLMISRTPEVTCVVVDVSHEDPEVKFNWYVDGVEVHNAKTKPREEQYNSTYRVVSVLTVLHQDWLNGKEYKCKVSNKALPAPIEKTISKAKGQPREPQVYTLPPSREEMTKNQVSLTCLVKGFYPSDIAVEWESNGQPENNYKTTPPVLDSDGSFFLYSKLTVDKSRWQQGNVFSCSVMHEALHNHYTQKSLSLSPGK

Binder	Kd [1] [pM]	Kd [2] [pM]	koff [2] [s⁻¹]	kon [2] [M⁻¹ s⁻¹]	Kd [3] [pM]	koff [3] [s⁻¹]
B1	45	–	–	–	–	–
B2	–	1	1e-07	310000	1	1e-07
